According to paper PMC8233713, “Direct Interaction of Polar Scaffolding Protein Wag31 with Nucleoid-Associated Protein Rv3852 Regulates Its Polar Localization” (Cells, 2021):

Legend:
[1] = target: T1, Wag31 (recombinant, from Wag31-pet28a) (Mycobacterium tuberculosis, UniProt P9WMU1 1-260); assay: co-IP; details: both partners purified
T1 sequence: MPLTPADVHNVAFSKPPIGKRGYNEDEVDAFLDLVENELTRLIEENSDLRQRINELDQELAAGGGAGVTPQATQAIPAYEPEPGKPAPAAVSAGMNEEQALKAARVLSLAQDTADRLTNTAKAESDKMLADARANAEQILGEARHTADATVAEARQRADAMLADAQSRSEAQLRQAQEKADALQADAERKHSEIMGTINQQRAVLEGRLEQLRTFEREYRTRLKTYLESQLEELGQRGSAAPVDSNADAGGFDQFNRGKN

[2] = target: T1, Wag31 (recombinant, from Wag31-pet28a); assay: pull-down; details: both partners purified

B1: 6X His-tagged Rv3852 protein (natural protein)
chain: MPDPQDRPDSEPSDASTPPAKKLPAKKAAKKAPARKTPAKKAPAKKTPAKGAKSAPPKPAEAPVSLQQRIETNGQLAAAAKDAAAQAKSTVEGANDALARNASVPAPSHSPVPLIVAVTLSLLALLLIRQLRRR
notes: also called hexa-histidine tagged Rv3852
Q: Does B1 bind [1]?
A: binds

B2: Rv3852-MBP (natural protein)
chain: MPDPQDRPDSEPSDASTPPAKKLPAKKAAKKAPARKTPAKKAPAKKTPAKGAKSAPPKPAEAPVSLQQRIETNGQLAAAAKDAAAQAKSTVEGANDALARNASVPAPSHSPVPLIVAVTLSLLALLLIRQLRRR
Q: Does B2 bind [2]?
A: binds
